The values below come from patent US20260159594A1 (UNIVERSITY OF TOKYO, published 2026).

The target in the assay is T1, human IL13RA2 (human, UniProt Q14627 27-380).
T1 construct: also called interleukin 13 receptor subunit alpha 2; 13R2
T1 sequence: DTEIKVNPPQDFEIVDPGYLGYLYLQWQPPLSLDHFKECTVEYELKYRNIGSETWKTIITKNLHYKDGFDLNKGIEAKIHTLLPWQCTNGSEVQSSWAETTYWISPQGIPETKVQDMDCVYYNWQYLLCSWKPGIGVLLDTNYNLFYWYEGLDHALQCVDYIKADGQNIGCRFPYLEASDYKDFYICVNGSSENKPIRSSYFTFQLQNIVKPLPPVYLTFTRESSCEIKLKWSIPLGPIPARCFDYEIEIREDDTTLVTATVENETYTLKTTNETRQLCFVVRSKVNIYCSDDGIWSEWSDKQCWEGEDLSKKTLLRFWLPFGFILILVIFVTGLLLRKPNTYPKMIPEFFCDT
In words: flow cytometry on U87(+), H1299(+) and RPMI7951 cells; Alexa Fluor 488-labeled anti-mouse IgG secondary antibody. (In general: Flow cytometry measures light scatter and fluorescence of single cells or particles in a stream.)

Procedure: Flow cytometry analysis was carried out using LSRFortessa (BD Biosciences).

B1: 4E6 antibody (antibody, V domains shown)
VH: EVKLEESGPGLVAPSQSLSIACTVSGFSLTRHGIHWVRQPPGKNLEWLGVIWAGGSTNYNSALMSRLSIIKDNSKSQVFLKMNSLQTVDTAMYYCARDHFDSFDYWGQGTTLTVSS
VL: DIVLTQTPAIMSASLGERVTMTCTASSSVSSSYLHWYQQKPGSSPKLWIYSTSNLASGVPLRFSGSGSGTSYSLTISSMEAEDAATYYCHQYHRSPLTFGAGTKLELKR
notes: also called anti-IL13RA2 antibody; antibody produced by hybridoma NITE BP-03673
As to B1, the binding result is “binds”.
